Measurements reported in the nanobody polyreactivity screen of Harvey et al. (2022).

Test: yeast display, Sf9 membrane polyspecificity reagent, FACS + sequencing; frameworks hold sequencing errors
How it was run: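 A synthetic nanobody library was expressed on Saccharomyces cerevisiae BJ5465 by galactose induction for 36–48 hours. The library was stained for 1 hour at 4 °C with 10% biotinylated, detergent-solubilized Sf9 membrane reagent and enriched with streptavidin microbeads before FACS. Low and high (top ~1%) gates were set on anti-HA fluorescence for expression and streptavidin fluorescence for reagent binding, and each polyreactivity label reflects the gate of origin.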

Sequence | polyreactivity (PSR sort gate)
QVQLVESGGGLVQAGGSLRLSCAASGFTAYGYAMGWYRQAPGQERELVAAISRSGGSTYYADSVKGRFTISRDNAKNTVYLQMYSLKPDDTAVYYCAVAVGREYVYRYYYWGQGTQVTVSS | high polyreactivity
QVQLVESGGGLVQAGGSLRLSCAASGFTCLFYDMGWYRQAPGKERELVASITWSGTSTYADSVKGRFTISRDNAINTVYLQMNSLKPEDTAVYYCNAEPHGVKVSYDYWGQGTQVTVSS | low polyreactivity
QVQLVESGGGLVQAGGSLRLSCAASGFTFAAYDKGWSRQAPGKELELVAAITKSGASTYYADSVKGRFTISRDIAKNTFYLQMNSLKPEDTAVYYCAAKNTLYSYYYWGQGTQVTVSS | high polyreactivity
QVQLVESGGGLVQAGGSLRLSCAASGFTFADNAMGWYRQATGKERELVAAISWNGGRTFYADSVKGRFTISRDNAKNTVYLQMNSLKPEDSAVYYCNAVFIVRKYTGWSTGEGYWGQGTQVTVSS | high polyreactivity
QVQLVESGGGLVQAGGSLRLSCAASGFTFAGNAMGWYRKAPGKERELVAGISRRGGNTYYADSVKGRFTISRDIAKNTVYLQMNSLKPEDTAVYYCARYSSSYWGQGTQVTVSS | high polyreactivity
QVQLVESGGGLVQAGGSLRLSCAASGFTFAGYAMGWYRQAPGKERELVAVITSSDSTYYADSVKGLFTISRDNAKNTDYLQMNSLKPEDTAVYYSAVRSYVNWWSIVKYDYWGQGTQVTVSS | low polyreactivity
QVQLVESGGGLVQAGGSLRLSCAASGFTFAHYAMGWYRPAPGKERELVAAISGSGSSTYYADSVKGRFTISRDYAKNSVYLKMNSLKPEDTAVYYCNVRWYFLYYYWGQGTQVTVSS | low polyreactivity
QVQLVESGGGLVQAGGSLRLSCAASGFTFAKNAMGWYRQAPGKERELVADITYSGGSTYADSVKGRFTISRDNAKNTVYLQMNSLKPEETAVYYCAADARRRSGYDYWGQGTQVSVSS | low polyreactivity
QVQLVESGGGLVQAGGSLRLSCAASGFTFAKYAMGWYRQAPGKERELVAAIRSRGDTTYYADSVKGRFTISRDNAKNTVYFQLNSLKPEDTAVYYCSARSYFLVDGSRYDYCGQGTQVTVSS | high polyreactivity
QVQLVESGGGLVQAGGSLRLSCAASGFTFAPYAMGWYRQAPGKERELVATIRSSGGRTYYADSVKGRFTISRDNAKNTVYLQMNSLKPEDTAVYYCAATGVYTKNPRGMDYWGQGTKVTVSS | high polyreactivity
QVQLVESGGGLVQAGGSLRLSCAASGFTFARNGMGWYRQAPGKEREFVAAITRSGGRTYYADSVKGRFTISRDNAKNTVYLQMNSLKPEDTAVYYCAAGYRGIGMNYWGQGTQVTVSS | high polyreactivity
QVQLVESGGGLVQAGGSLRLSCAASGFTFARNVMGWYRQAPGKERELVAAITTSGGSTYYADSVKGRFTISRDNAKNTVYLQMKSLKPEDTAVYYCARRVYGYYIPYNYWGQGTQVTVSS | high polyreactivity
QVQLVESGGGLVQAGGSLRLSCAASGFTFARYAMGWYRQAPGKERELVAAIIWSGGRTYYADSVKGRFTISRDTAKNTVYLQMNSLKPEDTAVYYCNAWGLFYYSSGYDYWGQGTQVTVSS | high polyreactivity
QVQLVESGGGLVQAGGSLRLSCAASGFTFAVYAMGWYRQAPGKERELVAAITTSGTRTYYADSVKGRFTISRDNAKNTVYLQMNSLKPEDTAVYYCAAVGFRQWPEFDYWGQGTQVTVSS | low polyreactivity
QVQLVESGGGLVQAGGSLRLSCAASGFTFAVYDMGWYRQAPGKERELVASITGDSTNYADSVKGRFTISRDNAKNTVYLQMNSLKPEDTAVYYCAAEYVPYYEYESWGQGTQVTVSS | low polyreactivity
QVQLVESGGGLVQAGGSLRLSCAASGFTFAWYTMGWYRQAPGKERELVAAITDSGDSTYYADSVKGRFTISRDNAKNTVYLQMNSLKPEDTAVYYCATRTWYWDIWITEYDYWGQGPQVTVSS | low polyreactivity

Sequence | polyreactivity (PSR sort gate)
QVQLVESGGGLVQAGGSLRLSCAASGFTFAWYTMGWYRQEPGKESELVAAISWSGGSTYYADSVKGRFTISPDNANKTVYLQMNILKPEDTAVYYCAVTTGLTRYEYWGQGTQVTVSS | high polyreactivity
QVQLVESGGGLVQAGGSLRLSCAASGFTFAYNAMGWYRPAPGKERELVAAISGRGVSTYYADSVKGRFTISRDNAKNTVYLQMNSLKPEDTAVYYCAKRYRYWTTERYDYWGQGTQVTVSS | high polyreactivity
QVQLVESGGGLVQAGGSLRLSCAASGFTFAYNAMGWYRQAPGKERELVAAISSGGTRTYYADSVKGRFTISRDNAKYTVYLQLNSLNPEDTAVYYCASERVGWSGYRGDYLGQGTQVTVSS | high polyreactivity
QVQLVESGGGLVQAGGSLRLSCAASGFTFAYNAMGWYRQAPGKERELVAAISWSGGTTYYADSVKGRFTISRDNAKNTVYLQMNSLKPEDTAVYYCAKRGIGYATSWRGSDYWGQGTQVTVSS | high polyreactivity
QVQLVESGGGLVQAGGSLRLSCAASGFTFAYYAMGWDRQAPGKERELVAAINWSGTRTSYADSVKGRFTISRDNAKNTVYLQMNSLKPEDTAVYYCAADSSLRYDYWGQGTQVTVSS | high polyreactivity
QVQLVESGGGLVQAGGSLRLSCAASGFTFAYYAMGWYRQAPGKEWELVAAISRGGTSTYYADSVKGRFTISRDKAKNTVYLQMNTLKPEDTAVNYCNAGKVGYSLYDYCGQGTQVTVSS | high polyreactivity
QVQLVESGGGLVQAGGSLRLSCAASGFTFCRYAMGWYRQAPGKEREFVAGISSSGGSTYYADSVKGRFTISRDNAKNTVYLQMNSLKPEVTAVYYCNKARYFTGQRYDYWGQGTQVTVSS | high polyreactivity
QVQLVESGGGLVQAGGSLRLSCAASGFTFDANAMGWYRQAPGKERELVAAITRVGSTFYADSVKGRFTISRDNAKNTVYLQMNSLKPEDTAVYYCNAARDHVSGYDYWGQGTQVTVSS | low polyreactivity
QVQLVESGGGLVQAGGSLRLSCAASGFTFDAYTMGWYRQAPGKERELVAAINWSGDTTYYADSVKGRFTISRDNAKNTVYLQMNSLKPEDTAVYYCAAVWWIYGVWFDYWGQGTQVTVSS | high polyreactivity
QVQLVESGGGLVQAGGSLRLSCAASGFTFDENAMGWYRQAPGINYSGASTYYADSVKGRFTISRDNAKNTVYLQMNSVKPEDTAVYYCAAEVVAQMNYCGQGTQVTVSS | low polyreactivity
QVQLVESGGGLVQAGGSLRLSCAASGFTFDENAMGWYRQAPGINYSGASTYYADSVKGRFTISRDNAQNSVYLQMNSLKPEDTAVYYCAAEVVAQMNYWGQGTQVTVSS | low polyreactivity
QVQLVESGGGLVQAGGSLRLSCAASGFTFDENAMGWYRQAPGINYSGASTYYAVSVKGRFTIARDNAKNTVYLQMNSLKPEDTAVYYCAAEVLAQMNYWGQGTQVTVSS | low polyreactivity
QVQLVESGGGLVQAGGSLRLSCAASGFTFDFYAMGWYRQAPGKDRELVAAISRSGGRTYYADSVKGRFTISRDNAKNTVYLQMNSLKPEDTAVYYCAAVDIIPVRMEYWGQGTQVTVSS | high polyreactivity
QVQLVESGGGLVQAGGSLRLSCAASGFTFDFYAMGWYRQAPGKERELVAAISKNDGTTYYADSVKGRFTISRDNAKNTVYLQMNSLKPEDTAVYYCAADVELWVFRGQQYDYWGQGTQVTVSS | low polyreactivity
QVQLVESGGGLVQAGGSLRLSCAASGFTFDGYGMGWYRQAPGKERELVAVITSGGSTKYADSVKGRFTISRDNAKNTVYLQMNSLKPEDTAVYYCAADNRIRGVAFDYWGQGTKVTVSS | low polyreactivity
QVQLVESGGGLVQAGGSLRLSCAASGFTFDKNAMGWYRPAPGKERELVAAINIGSTYYADSVKGRFTISRDNAKNTVYLQMNRLKPEDTAVYYCAKEVPSGYWVNYYYWGQGTQVTVSS | low polyreactivity
